Reference: PMC7755716

Test system: DtxR (Corynebacterium glutamicum (derived from KCTC No. 1445))
Assay: EMSA
Details: 150 uM Mn2+, 5 mM Mg2+, 50 mM Tris-HCl pH 7.5, 5 mM MgCl2, 40 mM KCl, 5% glycerol, 1 mM DTT, 150 uM MnCl2, 30 min at room temperature, 200 ng DNA, 0-350 ng DtxR dimer in 10 ul, 15% …

“NCgl1959 regulatory region, wild type (399 bp)” gave a binding signal (% of wild-type affinity) (reference) of 100.
With “NCgl1959 regulatory region, C-14G (399 bp)” the binding signal (% of wild-type affinity) was 40.
